B1: Q5HZI2 (protein, UniProt Q5HZI2 1-419, looked up)
chain: MRKTNMWFLERLRGSGENGASRGEAGDKSSKGPLYSNVLTPDKIPDFFIPPKLPSGPTEAEGQADLGPSTSEQNLASPGPRRAPRSPRLPAKLASESRSLLKAATRHVIQIESAEDWTAEEATNADPQAQGAMSLPSVPKAQTSYGFATLAESPHTRRKESLFHSEHGALAQVGSPGAGRRRAGAKGNGGDGGSREVGGALMSPSRYFSGGESDTGSSAESSPFGSPLLSRSVSLLKGFAQDSQAKVSQLKQSVGRHGSLSADDSTPDTSPGVRRRLSRRATPEPGPESGQAPRGEHTVKMGTRGSVRLLAEYEAAQARLRVRLLAAEGLYDRPCDARSINCCVGLCLVPGKLQKQRSTIIKNSRHPIFNEDFFFDGLGPASVRKLALRIKVVNKGSSLKRDTLLGEEELPLTSLLPFL
modifications: full-length
B2: Q60673 (protein, UniProt Q60673 1-979, looked up)
chain: MRRPRRPGGSGGSGGSGGLRLLVCLLLLSGRPGGCSAISAHGCLFDRRLCSHLEVCIQDGLFGQCQAGVGQARPLLQVTSPVLQRLQGVLRQLMSQGLSWHDDLTQHVISQEMERIPRLRPPEPHPRDRSGLVPRKPGPAGELLTQGNPTGSSPAAQGFPRPAGGRSWGGSPLSSLQAELLPPLLEHLLMPPQPPHPALTYEPALLQPYLFHQFGSRDGSRGSESSSGVVGVGHLSKAEGPALFSRSASKAILGTHSGHSFGDLTGPSPAQLFQDSGLLYMAQELPVPGRARAPRLPENGGNRAEDSSEGHEEEVLGGRGEKSPPQAAQPELSLQRLTAVLAGYGVELRQLTPEQFSTLLTLLQLLPKGTGRNLEGAVNVGGADVKKTIQQMQRGDPAEALPPTPSLPGYLTASPASSEVQQVLSPGFPEPPHTPSPLGSSSVLLEKKSPLGQSQPTVVGRPSARPSAEEYGYIVTDQKPLSLVAGVRLLEILAEHVHMSSGSFINISVVGPAVTFRIRHNEQNLSLADVTQQAGLVKSELEAQTGLQILQTGVGQREEAAEVLPRQAHGISPMRSVLLTLVALAGVAGLLVALAVALCMRHHSRQRDKERLAALGPEGAHGDTTFEYQDLCRQHMATKSLFNRAEGQPEPSRVSSVSSQFSDAAQASPSSHSSTPSWCEEPAQANMDISTGHMILAYMEDHLRNRDRLAKEWQALCAYQAEPNTCAAAQDESNIKKNRHPDFLPYDHARIKLKVESSPSRSDYINASPIIEHDPRMPAYIATQGPLSHTIADFWQMVWESGCTVIVMLTPLVEDGVKQCDRYWPDEGSSLYHVYEVNLVSEHIWCEDFLVRSFYLKNLQTQETRTLTQFHFLSWPAEGTPASTRPLLDFRRKVNKCYRGRSCPIIVHCSDGAGRTGTYILIDMVLNRMAKGVKEIDIAATLEHVRDQRPGLVRSKDQFEFALTAVAEEVNAILKALPQ
modifications: full-length
B3: Q5DQR4 (protein, UniProt Q5DQR4 1-1185, looked up)
chain: MKKFNFRKVLDGLTASSPGSGSSSGSNSGGAGSGSVHPGGTAGLPREEIQESLTSDYFQICKTVRHGFPYQPTALAFDPVQKILAIGTRTGAIRILGRPGVDCYCQHESGAAVLQLQFLINEGALVSASSDDTLHLWNLRQKRPAILHSLKFNRERITYCHLPFQSKWLYVGTERGNTHIVNIESFILSGYVIMWNKAIELSTKTHPGPVVHLSDSPRDEGKLLIGYENGTVVFWDLKSKRAELRVYYDEAIHSIDWHHEGKQFMCSHSDGSLTLWNLKSPSRPFQTTVPHGKSQREGRKSESCKPILKVEYKTCRNSEPFIIFSGGLSYDKACRRPSLTIMHGKAITVLEMDHPIVEFLTLCETPYPNEFQEPYAVAVLLEKDLIVVDLTQTNFPIFENPYPMDIHESPVTCTAYFADCPPDLILVLYSIGVKHKKQGYSNKEWPVSGGAWNLGAQTYPEIIITGHADGTIKFWDASAMTLQMLYKLKTSKVFEKQKAGEGKQTCELVEEDPFAVQMIYWCPESRIFCVSGVSAYVIIYKFSRHEVTTEIVSLEVRLQCDVEDIITPEPETSPPFPDLSSQLPPSRSLSGSTNTVSSEGVTKDSIPCLSVKTRPVRMPPGYQADLVIQLVWVDGEPPQQITSLSISSAYGIVAFGNCTGLVVVDFIQKTVLLSMGTIDLYRSSDLYQRQPRSPRKNRQFIADNFCMRGLSNFYPDLTKRIRTSYQSLTELNDSPVPLELERCKSPTSDHVNGHCTSPTSQSCSSGKRLSSADVSKVNRWGPGRPPFRKAQSAACMEISLPVTTEETRENSYNRSRSSSISSIDKDSKEAITALYFMESFARKNDSTVSPCLFVGTSLGMVVLISLNLPSSDEQRFTEPVVVLPSGTFLSLKGAVLTFSCMDRTGSLMQPPYEVWRDPNNTDENEKTWKRKLVMNYSSSSQEMGDHQYTIICSEKQAKVFSLPSQTCLYVHNITETSFILQADVVVMCNSACLACFCANGHIMIMSLPSLRPMLDVNYLPLTDMRIARTFCFTNEGQALYLVSPTEIQRLTYSQEMCDNIQDMLGDLFTPIETPEAQNRGFLKGLFGGSGQTFDREELFGEASAGKASRSLAQHIPGPGSIEGMKGAAGGVMGELTRARIALDERGQRLGELEEKTAGMMTSAEAFSKHAHELMLKYKDKKWYQF
modifications: full-length
B4: Q61263 (protein, UniProt Q61263 1-540, looked up)
chain: MSLRNRLSKSGENPEQDEAQKNFMDTYRNGHITMKQLIAKKRLLAAEAEELKPLFMKEVGCHFDDFVTNLIEKSASLDNGGCALTTFSILEEMKKNHRAKDLRAPPEQGKIFISRQSLLDELFEVDHIRTIYHMFIALLILFVLSTIVVDYIDEGRLVLEFNLLAYAFGKFPTVIWTWWAMFLSTLSIPYFLFQRWAHGYSKSSHPLIYSLVHGLLFLVFQLGVLGFVPTYVVLAYTLPPASRFILILEQIRLIMKAHSFVRENIPRVLNAAKEKSSKDPLPTVNQYLYFLFAPTLIYRDNYPRTPTVRWGYVAMQFLQVFGCLFYVYYIFERLCAPLFRNIKQEPFSARVLVLCVFNSILPGVLILFLSFFAFLHCWLNAFAEMLRFGDRMFYKDWWNSTSYSNYYRTWNVVVHDWLYYYVYKDLLWFFSKRFKSAAMLAVFALSAVVHEYALAICLSYFYPVLFVLFMFFGMAFNFIVNDSRKRPIWNIMVWASLFLGYGLILCFYSQEWYARQHCPLKNPTFLDYVRPRTWTCRYVF
modifications: full-length
B5: Q571E4 (protein, UniProt Q571E4 1-520, looked up)
chain: MAACTAAQQLLLVLSALGLLAAGAPQPPNIVLLLMDDMGWGDLGVNGEPSRETPNLDRMAAEGMLFPSFYSANPLCSPSRAALLTGRLPIRNGFYTTNAHARNAYTPQEIMGGIPNSEHLLPELLKKAGYTNKIVGKWHLGHRPQFHPLKHGFDEWFGSPNCHFGPYDNKAKPNIPVYRDWEMVGRFYEEFPINRKTGEANLTQLYTQEALDFIQTQHARQSPFFLYWAIDATHAPVYASRQFLGTSLRGRYGDAVREIDDSVGKILSLLQNLGISKNTFVFFTSDNGAALISAPNEGGSNGPFLCGKQTTFEGGMREPAIAWWPGHIAAGQVSHQLGSIMDLFTTSLSLAGLKPPSDRVIDGLDLLPTMLKGQMMDRPIFYYRGNTLMAVTLGQYKAHLWTWTNSWEEFTQGTDFCPGQNVSGVTTHTQEEHTELPLIFHLGRDPGERFPLSFHSDEYQDALSRTTQVVQEHQKSLVPGQPQLNVCNQAVMNWAPPGCEKLGKCLTPPESVPEKCFWAH
modifications: full-length
B6: Q60604 (protein, UniProt Q60604 1-715, looked up)
chain: MAQELQHPEFARAGQQAGLQVWRVEKLELVPVPQGAYGDFYVGDAYLVLHTTKSSRGFSYRLHFWLGKECSQDESTAAAIFTVQMDDYLGGKPVQSRELQGYESTDFVGYFKGGLKYKAGGVASGLNHVLTNDLTAKRLLHVKGRRVVRATEVPLSWESFNKGDCFIIDLGTEIYQWCGSSCNKYERLKASQVAIGIRDNERKGRSQLIVVEEGSEPSELMKVLGRKPELPDGDNDDDVVADISNRKMAKLYMVSDASGSMKVTLVAEENPFSMGMLLSEECFILDHGAAKQIFVWKGKNANPQERKTAMKTAEEFLQKMKYSTNTQIQVLPEGGETPIFKQFFKDWKDKDQSDGFGKVYITEKVAQIKQIPFDASKLHSSPQMAAQHNMVDDGSGGVEIWRVENSGRVQIDPSSYGEFYGGDCYIILYTYPRGQIIYTWQGANATRDELTMSAFLTVQLDRSLGGQAVQVRVSQGKEPAHLLSLFKDKPLIIYKNGTSKKEGQAPAPPTRLFQVRRNLASITRIVEVDVDANSLNSNDTFVLKLPRNNGFIWIGKGASQEEEKGAEYVADVLKCKASRIQEGKEPEEFWNSLGGRGDYQTSPLLETRAEDHPPRLYGCSNKTGRFIIEEVPGEFTQDDLAEDDVMLLDAWEQIFIWIGKDANEVEKKESVKSAKMYLETDPSGRDKRTPIVIIKQGHEPPTFTGWFLGWDSSRW
modifications: full-length

Test system: intracellular proteome of ENR+CD and ENR organoids
Test: LC-MS/MS TMT proteomics of ENR+CD versus ENR organoids
Assay type: cell-based, C57BL/6 mice
Details: for Average logFC: ENR+CD versus ENR organoids, sample pairs in aggregate (n=4, 2 technical replicates from two biological donors); for M1-1 Log2 Median Normalized / M1-2 Log2 Median Normalized / M2-1 Log2 Median Normalized / M2-2 Log2 Median Normalized: protein abundance ratio ENR+CD versus ENR organoids, LC-MS/MS TMT proteomics; for M1-1 Log2 Median Normalized: sample pair M1-1; for M1-2 Log2 Median Normalized: sample pair M1-2; for M2-1 Log2 Median Normalized: sample pair M2-1; for M2-2 Log2 Median Normalized: sample pair M2-2; for change: up = enriched in ENR+CD, down = enriched in ENR, FDR<0.05 and log fold change cut-off

Row | Molecule | Average logFC | M1-1 Log2 Median Normalized | M1-2 Log2 Median Normalized | M2-1 Log2 Median Normalized | M2-2 Log2 Median Normalized | change
1 | B1 | 1.158 | 0.822 | 0.518 | 1.5305 | 1.762 | up
2 | B2 | 1.189 | 1.189 | 1.249 | 0.8005 | 1.265 | up
3 | B3 | 1.147 | 1.316 | 0.966 | 1.1715 | 1.133 | up
4 | B4 | 1.308 | 1.563 | 2.15 | 1.0245 | 0.494 | up
5 | B5 | 1.207 | 1.473 | 0.565 | 1.3465 | 1.206 | up
6 | B6 | −1.3 | −1.236 | −2.062 | −1.8295 | −0.073 | down

Reference: US11994512B2, “Single-cell genomic methods to generate ex vivo cell systems that recapitulate in vivo biology with improved fidelity” (Massachusetts Institute of Technology, priority 2018, dated 2024)
